Data as given in the supplement of paper PMC5998384.

Experiments:
HeLa Kyoto [1] = assay: solubility in G1/S (NP-40 vs SDS abundance) (log2 ratio); higher = more soluble; conditions: cell cycle stage: G1/S
HeLa Kyoto [2] = assay: solubility change mitosis vs G1/S (difference of NP-40 vs SDS log2 ratios) (log2 ratio difference); higher = more soluble in mitosis
HeLa Kyoto [3] = assay: thermal stability score vs G1/S (z-score of summed log2 fold changes over temperatures); higher = more thermally stable than in G1/S
[4] = cell cycle stage: early G1 (4.5 h after nocodazole release)
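For solubility change mitosis vs G1/S (difference of NP-40 vs SDS log2 ratios) in this document: synchronized HeLa Kyoto cells (double thymidine block for G1/S, nocodazole release for mitosis), protein amounts in NP-40 versus SDS lysates quantified by mass spectrometry, three biological replicates.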
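For solubility in G1/S (NP-40 vs SDS abundance) in this document: HeLa Kyoto cells arrested at G1/S by double thymidine block, proteins quantified by TMT10plex mass spectrometry in mild NP-40 versus SDS extracts, three biological replicates.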
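For thermal stability score vs G1/S (z-score of summed log2 fold changes over temperatures) in this document: synchronized HeLa Kyoto cells, proteins quantified by TMT10plex mass spectrometry, three biological replicates, mitosis taken 0.5 h after nocodazole release, G1/S directly after double thymidine block.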

| Substance | solubility in G1/S (log2) (HeLa Kyoto [1]) | solubility change mitosis (log2) (HeLa Kyoto [2]) | thermal stability score (HeLa Kyoto [3]; [4]) | thermal stability score (HeLa Kyoto [3]; cell cycle stage: mitosis) |
| --- | --- | --- | --- | --- |
| MLLPWATSAPGLAWGPLVLGLFGLLAASQPQAVPPYASENQTCRDQEKEYYEPQHRICCSRCPPGTYVSAKCSRIRDTVCATCAENSYNEHWNYLTICQLCRPCDPVMGLEEIAPCTSKRKTQCRCQPGMFCAAWALECTHCELLSDCPPGTEAELKDEVGKGNNHCVPCKAGHFQNTSSPSARCQPHTRCENQGLVEAAPGTAQSDTTCKNPLEPLPPEMSGTMLMLAVLLPLAFFLLLATVFSCIWKSHPSLCRKLGSLLKRRPQGEGPNPVAGSWEPPKAHPYFPDLVQPLLPISGDVSPVSTGLPAAPVLEAGVPQQQSPLDLTREPQLEPGEQSQVAHGTNGIHVTGGSMTITGNIYIYNGPVLGGPPGPGDLPATPEPPYPIPEEGDPGPPGLSTPHQEDGKAWHLAETEHCGATPSNRGPRNQFITHD [LTBR] | -0.758 | 0.703 | -2.45 | -1.87 |
| MASDASHALEAALEQMDGIIAGTKTGADLSDGTCEPGLASPASYMNPFPVLHLIEDLRLALEMLELPQERAALLSQIPGPTAAYIKEWFEESLSQVNHHSAASNETYQERLARLEGDKESLILQVSVLTDQVEAQGEKIRDLEVCLEGHQVKLNAAEEMLQQELLSRTSLETQKLDLMTEVSELKLKLVGMEKEQREQEEKQRKAEELLQELRHLKIKVEELENERNQYEWKLKATKAEVAQLQEQVALKDAEIERLHSQLSRTAALHSESHTERDQEIQRLKMGMETLLLANEDKDRRIEELTGLLNQYRKVKEIVMVTQGPSERTLSINEEEPEGGFSKWNATNKDPEELFKQEMPPRCSSPTVGPPPLPQKSLETRAQKKLSCSLEDLRSESVDKCMDGNQPFPVLEPKDSPFLAEHKYPTLPGKLSGATPNGEAAKSPPTICQPDATGSSLLRLRDTESGWDDTAVVNDLSSTSSGTESGPQSPLTPDGKRNPKGIKKFWGKIRRTQSGNFYTDTLGMAEFRRGGLRATAGPRLSRTRDSKGQKSDANAPFAQWSTERVCAWLEDFGLAQYVIFARQWVSSGHTLLTATPQDMEKELGIKHPLHRKKLVLAVKAINTKQEEKSALLDHIWVTRWLDDIGLPQYKDQFHESRVDRRMLQYLTVNDLLFLKVTSQLHHLSIKCAIHVLHVNKFNPHCLHRRPADESNLSPSEVVQWSNHRVMEWLRSVDLAEYAPNLRGSGVHGGLIILEPRFTGDTLAMLLNIPPQKTLLRRHLTTKFNALIGPEAEQEKREKMASPAYTPLTTTAKVRPRKLGFSHFGNIRKKKFDESTDYICPMEPSDGVSDSHRVYSGYRGLSPLDAPELDGLDQVGQIS [PPFIBP2] | 0.218 | -0.265 | 0.328 | 0.498 |
| UBR3 | -0.174 | -0.171 | -0.103 | -0.24 |
| MNKGWLELESDPGLFTLLVEDFGVKGVQVEEIYDLQSKCQGPVYGFIFLFKWIEERRSRRKVSTLVDDTSVIDDDIVNNMFFAHQLIPNSCATHALLSVLLNCSSVDLGPTLSRMKDFTKGFSPESKGYAIGNAPELAKAHNSHARPEPRHLPEKQNGLSAVRTMEAFHFVSYVPITGRLFELDGLKVYPIDHGPWGEDEEWTDKARRVIMERIGLATAGEPYHDIRFNLMAVVPDRRIKYEARLHVLKVNRQTVLEALQQLIRVTQPELIQTHKSQESQLPEESKSASNKSPLVLEANRAPAASEGNHTDGAEEAAGSCAQAPSHSPPNKPKLVVKPPGSSLNGVHPNPTPIVQRLPAFLDNHNYAKSPMQEEEDLAAGVGRSRVPVRPPQQYSDDEDDYEDDEEDDVQNTNSALRYKGKGTGKPGALSGSADGQLSVLQPNTINVLAEKLKESQKDLSIPLSIKTSSGAGSPAVAVPTHSQPSPTPSNESTDTASEIGSAFNSPLRSPIRSANPTRPSSPVTSHISKVLFGEDDSLLRVDCIRYNRAVRDLGPVISTGLLHLAEDGVLSPLALTEGGKGSSPSIRPIQGSQGSSSPVEKEVVEATDSREKTGMVRPGEPLSGEKYSPKELLALLKCVEAEIANYEACLKEEVEKRKKFKIDDQRRTHNYDEFICTFISMLAQEGMLANLVEQNISVRRRQGVSIGRLHKQRKPDRRKRSRPYKAKRQ [BAP1] | 0.152 | -0.138 | 0.51 | 0.853 |
| MDGLQASAGPLRRGRPKRRRKPQPHSGSVLALPLRSRKIRKQLRSVVSRMAALRTQTLPSENSEESRVESTADDLGDALPGGAAVAAVPDAARREPYGHLGPAELLEASPAARSLQTPSARLVPASAPPARLVEVPAAPVRVVETSALLCTAQHLAAVQSSGAPATASGPQVDNTGGEPAWDSPLRRVLAELNRIPSSRRRAARLFEWLIAPMPPDHFYRRLWEREAVLVRRQDHTYYQGLFSTADLDSMLRNEEVQFGQHLDAARYINGRRETLNPPGRALPAAAWSLYQAGCSLRLLCPQAFSTTVWQFLAVLQEQFGSMAGSNVYLTPPNSQGFAPHYDDIEAFVLQLEGRKLWRVYRPRVPTEELALTSSPNFSQDDLGEPVLQTVLEPGDLLYFPRGFIHQAECQDGVHSLHLTLSTYQRNTWGDFLEAILPLAVQAAMEENVEFRRGLPRDFMDYMGAQHSDSKDPRRTAFMEKVRVLVARLGHFAPVDAVADQRAKDFIHDSLPPVLTDRERALSVYGLPIRWEAGEPVNVGAQLTTETEVHMLQDGIARLVGEGGHLFLYYTVENSRVYHLEEPKCLEIYPQQADAMELLLGSYPEFVRVGDLPCDSVEDQLSLATTLYDKGLLLTKMPLALN [NO66] | -0.879 | 0.755 | -0.151 | 0.066 |
